# Assay results as given in PMC6199243 (Scientific Reports, 2018).
# T1: a-subunit of recombinant Enterococcus hirae V-ATPase (Enterococcus hirae, UniProt P43439 1-664)
# T1 construct: a-subunit of Enterococcus hirae V-ATPase (NtpI); In the map it is represented by a T. thermophilus model (PDB 5GAS) and a homology model of its C-terminal half; also called Eh a-subunit; transmembrane a-subunit; source: E. coli, expressed from pTR19-EhV-ATPase, purified as part of the whole r-EhV-ATPase (Ni-NTA, Superdex 200) in 0.05% DDM
# T1 sequence (looked up): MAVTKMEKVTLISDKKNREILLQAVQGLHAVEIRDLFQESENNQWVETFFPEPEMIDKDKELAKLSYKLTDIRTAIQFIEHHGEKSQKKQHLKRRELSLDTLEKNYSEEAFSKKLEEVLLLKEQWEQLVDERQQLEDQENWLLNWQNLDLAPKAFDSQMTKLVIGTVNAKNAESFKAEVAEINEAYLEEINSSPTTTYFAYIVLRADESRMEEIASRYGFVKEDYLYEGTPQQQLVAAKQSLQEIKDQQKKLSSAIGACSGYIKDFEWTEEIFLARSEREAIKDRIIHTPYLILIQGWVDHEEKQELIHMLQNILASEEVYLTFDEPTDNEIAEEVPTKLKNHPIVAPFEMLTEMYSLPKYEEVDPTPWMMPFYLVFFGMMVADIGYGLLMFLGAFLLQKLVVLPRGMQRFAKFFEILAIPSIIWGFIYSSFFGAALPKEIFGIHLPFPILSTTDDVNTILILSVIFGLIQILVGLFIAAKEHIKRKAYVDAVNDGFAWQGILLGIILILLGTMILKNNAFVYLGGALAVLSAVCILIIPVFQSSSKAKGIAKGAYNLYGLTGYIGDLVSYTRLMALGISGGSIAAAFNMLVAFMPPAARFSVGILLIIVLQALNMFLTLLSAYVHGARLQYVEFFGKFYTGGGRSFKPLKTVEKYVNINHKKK
# Target: T1, a-subunit of recombinant Enterococcus …
# Experiment: cryo-EM structure; Zernike phase plate single-particle cryo-EM of r-EhV-ATPase in 0.05% DDM, 17.3 Å; earlier atomic models and homology models fitted into the map
# Conditions: both partners purified
binder,measurement,value
"EG complex (peripheral stalk) of recombinant Enterococcus hirae V-ATPase (complex, E-subunit of Enterococcus hirae V-ATPase (NtpE); G-subunit of Enterococcus hirae V-ATPase (NtpF); Two EG peripheral stalks stand in the whole enzyme; The models fitted into the map for EG are of T. thermophilus (PDB 3K5B, 3V6I), not of E. hirae; also called peripheral stalks; source: E. coli, expressed from pTR19-EhV-ATPase, purified as part of the whole r-EhV-ATPase (Ni-NTA, Superdex 200) in …) chain 1: MPIDKIITQINETAQLERASFEEMKRKEIDQKFEVKKWQIEADFQKEKASKLEEIERSYRQLRNKQKMQVKQEILNAKQEVLQRLFTEATLQLENEPKEEQLALMKQMIQTLPINGTARLIPGEKSADILTPAVIAEWNEELPFELIREDFTEKAQAGLIIDDAGIQYNFLFSHLIKEIQETMSAEIAKELFD chain 2: MARILTRIKEAEENNQKKEEQVKAELAQYEQLKNNELIDLNKEFQERLTKLMKEKEKNEEEVTEDEQHKLELILEQFRQKVLEIEKTYLEKEEEEIAKKKNLTNEIIERMKQNNGCH",binding result,binds
